Assay results from patent US20020128178A1, “Use of growth hormone or a growth hormone secretagogue for promoting bone formation” (priority 1996, published 2002).

Legend:
[1] = system: fracture-healing in rabbits; conditions: no distraction; cited from earlier work
[2] = system: distracted tibia (callus distraction) of Yucatan mini-pigs; experiment: Mechanical torsion testing of distracted tibia after callus distraction in GH-treated mini-pigs; format: in vivo, Yucatan mini-pig; conditions: at sacrifice
Method: After sacrifice, the right and left limb were dissected. The soft tissue around the joints was removed, and the ends of the tibia were casted in Beracryl. The constructs were placed in a materials testing machine (Zwick, Ulm, Germany), and torsional moments were applied. Resulting displacements and torsional moments were recorded. The test was conducted with a speed of 30° per minute until failure. The system automatically terminated the test at a torque of 20%.
The final bone torsional strength of a mini-pig group treated with growth hormone was investigated relative to a control group.
30 mature female Yucatan mini-pigs were equally distributed into two treatment groups. Mini-pigs in the study group received a daily injection of recombinant porcine growth hormone (r-pGH: 100 μg/kg), the mini-pigs in the control group received sodium chloride as placebo. The left tibiae and fibulae were osteotomized and stabilized with an external fixator. Full weight bearing was permitted. The legs were distracted twice daily at 2 mm/day for 10 days and then allowed to consolidate for 10 days. After sacrifice, torsional moments were applied to the distracted and the contralateral tibia in a material testing machine and the maximum torsional moment was determined. Four animals were removed from the study due to bone infection or surgery failure and data of 2 animals were lost due to test machine failure. A t-test was used to determine differences in maximum torsional moments between the treatment groups.

[3] = system: healing fracture in dogs; conditions: compared to non-treated dogs; cited from earlier work

growth hormone
effect on fracture-healing [1]: no effect

B1: GH: recombinant porcine growth hormone (r-pGH), homologous GH injected daily at 100 μg/kg in mini-pigs (protein, UniProt P01248 27-216, looked up)
Somatotropin: FPAMPLSSLFANAVLRAQHLHQLAADTYKEFERAYIPEGQRYSIQNAQAAFCFSETIPAPTGKDEAQQRSDVELLRFSLLLIQSWLGPVQFLSRVFTNSLVFGTSDRVYEKLKDLEEGIQALMRELEDGSPRAGQILKQTYDKFDTNLRSDDALLKNYGLLSCFKKDLHKAETYLRVMKCRRFVESSCAF
maximum torsional moment of distracted tibia ([2]; r-pGH 100 μg/kg daily injection, distraction 2 mm/day for 10 days, consolidation 10 days, p=0.001 vs placebo): 19.5±7.8 Nm | maximum torsional moment in comparison to the intact contralateral tibia ([2]; r-pGH 100 μg/kg daily, p<0.001 vs control): 64±22.4% | higher maximum torsional moment than placebo group ([2]; r-pGH 100 μg/kg daily, versus placebo group): 131%

B2: cST: canine somatotropin given to dogs in the study of Buonomo et al. (protein, UniProt P33711 27-216, looked up)
Somatotropin: B1 Somatotropin
increase of stiffness of the healing fracture [3]: 5 fold | increase of strength of the healing fracture [3]: 3 fold
